experiment: soluble on expression in E. coli; label from the status in PepcDB or PDB records

Sequence | soluble on expression in E. coli
MVAKQISKADIHLLRVFCIVVDSQGFSNAQVALNVATSTISRQISELETRLGMRLCDRGRSGFRVTEKGETVYQAAQKLFGALGEFQETVDGSRGRLFGHLALGIIENWASNTSAPIVQALSRFTDLAPDVTIELHSLAPDDIEFAVLDGRVPIGIGVFHSPKPGILYTKVCEERVCLYCGSGHPLFHMTNLEDEERVLRQAQFAKRAYLNEDVVAPKTRNLPSNATAHQMEAIALLILTDKYVGYLPSYFAEEWVAKGRMKIVAGGSFDRPVSVQTATRRGMKLNSVGRTFLDILTAEAVKQGG | not soluble
MGSDKIHHHHHHMFDPETLRTFIAVAETGSFSKAAERLCKTTATISYRIKLLEENTGVALFFRTTRSVTLTAAGEHLLSQARDWLSWLESMPSELQQVNDGVERQVNIVINNLLYNPQAVAQLLAWLNERYPFTQFHISRQIYMGVWDSLLYEGFSLAIGVTGTEALANTFSLDPLGSVQWRFVMAADHPLANVEEPLTEAQLRRFPAVNIEDSARTLTKRVAWRLPGQKEIIVPDMETKIAAHLAGVGIGFLPKSLCQSMIDNQQLVSRVIPTMRPPSPLSLAWRKFGSGKAVEDIVTLFTQRRPEISGFLEIFGNPRS | not soluble
GPLGSMDQSVAIQETLVEGEYCVIAVQGVLCKGDSRQSRLLGLVRYRLENDAQEHALFLYTHRRMAITGDDVSLDQIVPLSKDFMLEEVSPDGELYILGSDVTVQLNTAELKLVFQLPFGSHTRTFLQEVARACPGFDPETRDPEFEWLSRHTCAEPDAES | soluble
MAKRIKNTTPKQDGFRMPGEFEKQKQIWMLWPWRNDNWRLGAKPAQKAFLEVAEAISEFEPVSLCVPPLQYENALARVSELGSHNIRIIEMTNDDAWIRDCGPTFLVNDKGDLRAVDWEFNAWGGLVDGLYFPWDQDALVARKVCEIEGVDSYKTKDFVLEGGSIHVDGEGTVLVTEMCLLHPSRNPHLTKEDIEDKLKDYLNCVKVLWVKDGIDPYETNGHIDDVACFIRPGEVACIYTDDKEHPFYQEAKAAYDFLSQQTDAKGRPLKVHKMCVTKEPCYLQEAATIDYVEGSIPREEGEMAIASYLNFLIVNGGIILPQYGDENDQLAKQQVQEMFPDRKVVGVRTEEIAYGGGNIHCITQQQPATLEHHHHHH | soluble
MKPSMEKVLLQIALDLSSNLSSDLHYQRLINSIHQVFPCDASALFILDNDHCLKPVAVKGLSQAVLGRCFPPQVHPRLEAILQSKHPVRFESNSDLPDPFDGLLLVDENINIEVHDCLGCSLYVDDTLVGVLTLDALEVGAFKKIDDITIETFAALAAATLHNKALIKTLQDSNQQQKSINQTLI | not soluble
MKEIKLILTDIDGVWTDGGMFYDQTGNEWKKFNTSDSAGIFWAHNKGIPVGILTGEKTEIVRRRAEKLKVDYLFQGVVDKLSAAEELCNELGINLEQVAYIGDDLNDAKLLKRVGIAGVPASAPFYIRRLSTIFLEKRGGEGVFREFVEKVLGINLEDFIAVIQ | soluble
MNLHTKTWVQRLPVPIDVAWDFFSQPGNLARITPPEMMLKAEGGNAGTAIYEGMKLNFVLYPFMMIPVRWTTEIMKVSKPDFFEDRQLSGPYEQWYHRHLFRDIEGGTEMTDIVEYALPFDLFGEVVEALIVGPRLDEVFEYRRCRVAEILGEMASETRLEHHHHHH | soluble
MIVPYSVEDILKDGCFLERAEIDRLLDRLRTKKNLILQGPPGTGKTWLAKRLAFALMGQKDDSKVRAVQFHPNLSYEDFVRGWRPTGEGKLSLADGVFMEAIKAASKDPSSKFVVVIEEINRGNPAQIFGELLTLLEAGKRTPNEALELCYPDADGKRRPVHIPENLYVVGTMNIADRSLALVDLALRRRFAFVGLEPRLGQVWRDWVVKECAVDPLEHHHHHH | not soluble
MALDNRHRLIVGKLAEAFGLPENVIEKTLTQDKQAVNSFFTPAGPPSLVFVYQVKEDKLKDGSVGPVDNKPTLHRIGPHERIHNKGVYFTRLNPKGINEKTLEADMGSGELSGGALENFKAIVSDLYLPIMQEQQQWGKMSTEYLEDFLSSTAKFGSMLTEAVATVSGGVELRMPDPRYIDQYGDLRPAGITQAAGDDDTLQEMEECLTEWCREAELLLNQTNKIKDGEEPGPDTELEYWRTRMSNFNSITEHLKTKECKLVLGICSHAKTKAYLRWRALDVQITDAANESKDNVKYLATLEKSMEPMYQGRVTDITESLPALMTNVRMMYTIARFYSTAEHMTRLFTKITNQLVRRCKEQIMENGKIWDQDKVTLIGNMKVSVELANVYRQQYRLAKETLAAQPKSKQFDFDEQAIFLKFDLFSKRLHKLIDMFTTIHQFSSLEQHTHIEGLDTMLKSLNNIIDDVKRKPYDLLDYSRNAFDRDFLEFNVQINDLELQLQGFVNASFEHITSTEHALSLLAQFQAIMQRETLQQDLENKYMVIFQNYAKDLDAVQKLYEKNKYEPPVPRNAPPVAGNIMWARQLLRRIEAPMQRFAQNKNLLAAKESKKIIKTYNKVAKALIEFETLWHQAWIKSIEQCKAGLAAPLLVQHPDTGKILVNFDKEIMQLVREAKYMQRFNIAVPESAQMVLLQEEKFKFYHNQLTHLVREYEHVLGRVAPTIKPLLRPHLDDMERKIAPGFAVLTWTSLNIDGYLHRFKQGLARLEELVRKVVDLTENRVDSNLGAISSTLLVELPTDRSFTYEEFVSTQNRFQKKQAELLAIRNEEVRRAIEDLLTLVRNYPRENTEDVLDEKEVSLFVRHYSKNMYNAIMQCTLNSLQAMKRRLGSKTTTGIFFMERPFFDVDVELKVPSVCMNPTLEEIQAAINQCAKKVLTISKQLPAWGMDNVATYHEMIAGDKEVVKAVLRLTGSVEGIKTQVGEYIRTFDKYDFLWKEDLQAAYDHFMRSNPTLEAFEAELKKYMAIETEVTMINGVNNIGALSLETMPLKNSLKAEAVSWKTQFAQNLHKQCSDDLKAFDNYIRDTNSKFHRKIEDLEDVRNVMAVLKEVREKESEIDNLIGPIEEMYGLLMRYEVRVPKEETTMVSDLRYGWKKLKKVATEVSDNLTRLQVGFKRELIKEVKTFVVDAQMFRKDWEANGPMVPGLDPQEAVDRLRKFQQMFEVRKRKWENYSSGEELFGLPVTQYPELEQTEKEIQMLDRLYSLYVAVITTIKGYGDYFWVDVVEKIDEMGEQVQQYQNQSKKLPKALRDWPAYNACRKTIDDFLEMLPLFQALTHKSMRERHWKEVMRVTGHELNLAEDHFKLQHLLDCNVLRYREDIEDLTGAAVKEEIIEVKLNQLKADWATANLAFAEYKNRGPVILKPSDTSELMEKLEESQMTLGSMATNRYSAPFRDEVQAWSIKLSTVSEIIEQWLMVQSMWQYMEAVF | not soluble
MGSDKIHHHHHHMRLDTLSKTGGGVQEALSGSVRLYSEVLNREVEVPETPRRIVSLSPAITETLYMLGLEDRIAGVSVYDHKPPKAREKPKVGSYYKVNMKLLEQLNPDLILVTTGAQRRILEDLSRRYPVYPIPLPVSVSGIIDQAVQVGIVTGALEEASRLETELLDKASKLRGAGRGLRIYYEVYLGGPVTAGAHTYISDAFRIAGVETPFMSERTTWIYQPPPERINRFKPQFILYEYSAYAPTTAEKVRGELEARGVDVGSAELVLLEPDTLAHYGPSFIDTMLDLLKTLRDKAGLG | not soluble
MAHHHHHHMTHYSRKPQVSSKSAKAKVSDLRCHYKNTFETANVINGMPLRKAQQLYRQVLAKTRCIPFKRYNGKIGRTAQAKEWGQTKGRWPRKSVVAMMSLLKNAEANAIEKGLDPNQMVIKHVQVDQAARMRRRTYRAHGRITPYMCSPCHVQLFMSEKKERVPAPKSAPKK | not soluble
MSLSRVPRPHIHQRISVEDIMKGNRRTLAKAITLAESSNPADSTRLGNLLREIHQMATVRTVPRFALSGSPGSGKSSLLDTLGYYLCEKKNMHVGVLAVDPSSTITHGSILGDKTRMEKLGTHLNSYIRPSPSGGHLGGVTSRAWEALEIFEAARFDVVFVETVGVGQSETQCKDLTDMMILLVPPASGDELQGIKKGVVEVADMVVVTKNDGRRKPLVQQTMSAYARAVMYTEEKQGFEKPVIAVSAEEGTNVPELWEAMLKMWNARLESGQIAHLRRAQSTKHFYNYFEMELLAKARRMTNLEMQNMAHRVWEHEMTPREAGDIMVLRTLREHLAADAAVQHDAGKRAEGHHHHHH | soluble
NVQEEVTCPICLELLTEPLSLDCGHSLCRACITVSNKEAVTSMGGKSSCPVCGISYSFEHLQANQHLANIVE | soluble
KVKVPYLRLSLPELHIDMDFLKKTVDFSSISALQQTVLYIGRLLVQSGINTLGVDAVAAFNAVSIIDSYVLAPGDSLAASITTFTAQNKGGKQYHRIPKG | not soluble
MPGFAIGQTAYVVKTDSYRLLWDCITYLDETTIAKIKELGGLDAIALSHPHYYSTQVEWAETFDVPIYIHEDDKEWVMRPSSRIIYWSGESLQLADGITIHRLGGHFSGGSVLHWEEGNDGKGILLTGDIIQVVADERWVSFMYSYPNLIPLPARKVEEMVNRVKPLQFNRLYNAFHRVVKLEHHHHHH | soluble
MNYFPDEVIEHVFDFVTSHKDRNAISLVCKSWYKIERYSRQKVFIGNCYAINPERLLRRFPCLKSLTLKGKPHFADFNLVPHEWGGFVLPWIEALARSRVGLEELRLKRMVVTDESLELLSRSFVNFKSLVLVSCEGFTTDGLASIAANCRHLRDLDLQENEIDDHRGQWLSCFPDTCTTLVTLNFACLEGETNLVALERLVARSPNLKSLKLNRAVPLDALARLMACAPQIVDLGVGSYENDPDSESYLKLMAVIKKCTSLRSLSGFLEAAPHCLSAFHPICHNLTSLNLSYAAEIHGSHLIKLIQHCKKLQRLWILDSIGDKGLEVVASTCKELQELRVFPSDLLGGGNTAVTEEGLVAISAGCPKLHSILYFCQQMTNAALVTVAKNCPNFIRFRLCILEPNKPDHVTSQPLDEGFGAIVKACKSLRRLSLSGLLTDQVFLYIGMYANQLEMLSIAFAGDTDKGMLYVLNGCKKMKKLEIRDSPFGDTALLADVSKYETMRSLWMSSCEVTLSGCKRLAEKAPWLNVEIINENDNNRMEENGHEGRQKVDKLYLYRTVVGTRMDAPPFVWIL | not soluble
MARLLMIPGPTPVDPEVLLAMARPVISHTSPDFDEIHGETVSMLQKLFRTSGKVFLLPGSGSLGMEFAVRSVAGRGSRALVLKAGYFGGYFERILRSLGASVTVVESPVGRGFTGADVEEALDRAGDVDVVFVQHVETSTSVANPVREIAGVVKKNGARLVVDGIASVGGMDLRLDEWGVDVALTGSQKALSTPPGLAIVAFSSEYSVELEKREPSGIYFDFLSLSREMESTRNYHITPAVNLVFALNASLKRILGEGLENRFERHRVLARAFTRAMEALGLRLVAEEPFRAWTVTAVYLPQGIDWSRFYSVMRKRGVEVAGGLGGLKGKIFRVGHMGEVDANDLIATIAAIERSLVELGYREARLGQGLEAAQKELSSLGL | soluble
MRVQILKDFVKQHFPATPLLDYALEVEKITTSKKPNLILNVDGFIGVAFVDMLRNCGSFTREEADEYVDIGALNGIFVLGRSMGFIGHYLDQKRLKQGLYRHPWDDISYVLPEHMSM | not soluble
MSLRELQNALYFSEVVFGPNLEKIVGEKRLNFWLKLIGEDPENLKEFLSRKGNSFEEQTLPEKEAIVPNRLGEEALEKVREELEFLNTYSTKHVRRVKELGVQIPFEGILLPFISMYIEKFQQQQLRKKIGPIHEEIWTQIVQDITSKLNAILHRTLILELNVARVTSQLKGDTPEERFAYYSKTYLGKREVTHRLYSEYPVVLRLLFTTISHHISFITEILERVANDREAIETEFSPCSPIGTLASLHLNSGDAHHKQRTVTILEFSSSLKLVYKPRSLKVDGVFNGLLAFLNDRTGEVIKDQYCPKVLQRDGYGYVEFVTHQSCQSLEEVSDFYERLGSLMSLSYVLNSSDFHFENIIAHGPYPVLIDLETIIHNTADSSEETSTAMDRAFRMLNDSVLSTGMLPSSIYYRDQPNMKGLNVGGVSKSEGQKTPFKVNQIANRNTDEMRIEKDHVTLSSQKNLPIFQSAAMESVHFLDQIQKGFTSMYQWIEKNKQEFKEQVRKFEGVPVRAVLRSTTRYTELLKSSYHPDLLRSALDREVLLNRLTVDSVMTPYLKEIIPLEVEDLLNGDVPYFYTLPEERALYQEASAINSTFFTTSIFHKIDQKIDKLGIEDHTQQMKILHMSMLASNANHYADVADLEGHHHHHH | soluble
